In patent US20100196390A1 (RINAT NEUROSCIENCE, published 2010):
Substitutions are numbered along the chain they refer to.

B1: 4B12-23 (Fab, V domains shown)
VH: QVQLVQSGAEVKKPGASVKVSCKASGYTFTNYDIIWVRQAPGQGLEWMGYINPYNGRREYNEKFKGRVTMTRDTSTSTVYMELSSLRSEDTAVYYCARLLKYRAFRYYAIDYWGQGTTVTVSS
VL: DIQMTQSPSSLSASVGDRVTITCRASEPVYSNVAWYQQKPGKAPKLLIYAASNLQSGVPSRFSGSGSGTDYTFTISSLQPEDIATYYCQHFWGSPFTFGQGTKLEIK
notes: Fab
B2: 6-C10 (Fab, V domains shown)
VH: B1 VH with D33V, I35L, G56D, R57G, R58T, E59K, A104R
VL: B1 VL with P28N, V33L, Y71F, G93Y, P95W
notes: Fab
B3: 5-D1 (Fab, V domains shown)
VH: B1 VH with D33V, I35L, G56D, R57G, R58T, E59K, A104R, Y112V
VL: B1 VL with P28N, V33L, Y71F, H90N, G93Y
notes: Fab
B4: 4B12-24 (Fab, V domains shown)
VH: B1 VH with A104R, R106S
VL: B1 VL
notes: Fab
B5: 5-B8 (Fab, V domains shown)
VH: B1 VH with D33V, I35L, G56D, R57G, R58T, E59K, A104R
VL: B1 VL with P28N, V33L, Y71F, H90Q, G93Y
notes: Fab
B6: 6-A6 (Fab, V domains shown)
VH: B1 VH with D33V, I35L, G56D, R57G, R58T, E59K, A104R, R106K
VL: B1 VL with P28N, V33L, Y71F, G93Y, T97V
notes: Fab
B7: 6-B4 (Fab, V domains shown)
VH: B1 VH with D33V, I35L, G56D, R57G, R58T, E59K, A104R, R106Q
VL: B1 VL with P28N, V33L, Y71F, G93Y
notes: Fab
B8: 5-B2 (Fab, V domains shown)
VH: B1 VH with D33V, I35L, G56D, R57G, R58T, E59K, A104R, R106S
VL: B1 VL with P28N, V33L, Y71F, W92D, G93Y
notes: Fab
B9: 4B12-29 (Fab, V domains shown)
VH: B1 VH with A104R, F105A
VL: B1 VL
notes: Fab
B10: 6-B11 (Fab, V domains shown)
VH: B1 VH with D33V, I35L, G56D, R57G, R58T, E59K, A104R, R106S
VL: B1 VL with P28N, V33L, Y71F, G93Q
notes: Fab
B11: 5-B1 (Fab, V domains shown)
VH: B1 VH with D33V, I35L, G56D, R57G, R58T, E59K, A104R, R106T, D111H
VL: B1 VL with P28N, V33L, Y71F, G93Y
notes: Fab
B12: 4B12-27 (Fab, V domains shown)
VH: B1 VH with Y102A, A104R
VL: B1 VL
notes: Fab
B13: 4B12-25 (Fab, V domains shown)
VH: B1 VH with K101R, A104R
VL: B1 VL
notes: Fab
B14: 5-F1 (Fab, V domains shown)
VH: B1 VH with D33V, I35L, G56D, R57G, R58T, E59K, A104R, R106K
VL: B1 VL with P28N, V33L, Y71F, G93Y, T97L
notes: Fab
B15: 5-E2 (Fab, V domains shown)
VH: B1 VH with D33V, I35L, G56D, R57G, R58T, E59K, A104R, R106K
VL: B1 VL with P28N, V33L, Y71F, G93Y
notes: Fab
B16: 4B12-28 (Fab, V domains shown)
VH: B1 VH with A104R, F105E
VL: B1 VL
notes: Fab
B17: 4B12-26 (Fab, V domains shown)
VH: B1 VH with A104R, R106A
VL: B1 VL
notes: Fab
B18: 5-G4 (Fab, V domains shown)
VH: B1 VH with D33V, I35L, G56D, R57G, R58T, E59K, A104R, R106S
VL: B1 VL with P28N, V33L, Y71F
notes: Fab

Molecular target: TrkB (Homo sapiens (Human), UniProt Q16620 32-430)
Experiment: koff of Fab at 25 C; T1/2=Log2/koff
Procedure, shortened: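 Monovalent Fab fragments were tested at 25° C by surface plasmon resonance on a Biacore instrument, against TrkB extracellular-domain monomer amine-coupled to the chip at low capacity. Fabs were injected low to high as a 3-fold serial dilution from 100 nM for 84 sec, with a 10 minute dissociation after the top sample. The dissociation half-life was calculated from koff, which was fitted to a Langmuir binding model in BIAevaluation. The formula used was T1/2 = Log 2/koff.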

Chain of TrkB (Q16620 32-430 limits assumed): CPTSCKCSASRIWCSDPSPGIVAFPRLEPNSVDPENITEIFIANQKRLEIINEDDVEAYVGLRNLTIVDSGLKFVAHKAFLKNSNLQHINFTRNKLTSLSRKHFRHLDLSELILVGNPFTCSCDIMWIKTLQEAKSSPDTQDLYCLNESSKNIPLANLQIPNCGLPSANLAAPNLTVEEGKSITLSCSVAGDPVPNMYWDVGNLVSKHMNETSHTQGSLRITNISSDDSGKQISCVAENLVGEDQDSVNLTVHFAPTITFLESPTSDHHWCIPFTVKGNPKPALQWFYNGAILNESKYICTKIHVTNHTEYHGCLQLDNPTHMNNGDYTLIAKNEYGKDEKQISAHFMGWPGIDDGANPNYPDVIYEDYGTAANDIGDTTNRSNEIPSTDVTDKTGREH

Binder	T1/2
B1	10.8 min
B2	1.55 min
B3	1.61 min
B4	6 min
B5	1.82 min
B6	1.59 min
B7	1.55 min
B8	1.55 min
B9	5.6 min
B10	1.44 min
B11	1.36 min
B12	0.5 min
B13	1.1 min
B14	1.6 min
B15	1.66 min
B16	5.4 min
B17	8.1 min
B18	1.35 min
